From patent publication US20160068605A1 (Janssen / Centocor, published 2016)
Numbering of substitutions follows the chain as printed. Names and notes keep the numbering of the source. Values joined by “and” are separate entries in the source; they are usually repeats but may differ in a detail not shown here. Equal values may be shown once.

What was measured:
[1] = molecular target: T1, cyno CD123 ECD displayed on pDisplay-transfected cells (cynomolgus monkey); test: MSD cell binding on 293F pDisplay cells; fold change over background; parental 293F cells as control
T1 construct: ECD anchored on the surface of stably transfected HEK293 cells; also called cynoCD123 SP1 cells; cynoCD123 cells
T1 chain: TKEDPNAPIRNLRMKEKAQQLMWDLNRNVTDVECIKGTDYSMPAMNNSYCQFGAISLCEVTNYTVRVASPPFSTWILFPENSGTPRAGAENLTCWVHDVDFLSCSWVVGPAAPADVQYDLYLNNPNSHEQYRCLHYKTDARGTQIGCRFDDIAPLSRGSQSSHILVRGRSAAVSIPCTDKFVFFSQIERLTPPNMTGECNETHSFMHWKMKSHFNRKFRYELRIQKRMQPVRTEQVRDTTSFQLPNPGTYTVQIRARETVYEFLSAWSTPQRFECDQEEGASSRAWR
Protocol: The object of the screening assay was to identify antibodies that bound to cells expressing hCD123 SP1 and SP2 as well as cross reactivity with cells expressing cynoCD123 SP1.
Cells were immobilized and phages were assayed in triplicate. […] 5000 cells per well were plated into a 384 well plate (MA6000, cat. L21XB, MSD) and allowed to adhere for 2 hr. Cells were then blocked with 20% FBS in PBS (Gibco) for 15 mins. Antibody supernatants were then added and left at RT for 1 hr. Cells were washed 3 times with PBS and a ruthenium labeled secondary antibody (Jackson Immuno Research) was then added at 1 μg/mL and incubated for 1 hr at room temperature. A further washing step was then applied and 35 μL per well of MSD Read buffer T (surfactant free) was then added and incubated for 30 min for detection. Plates were then read using Sector Imager 2400 (MSD). Data was normalized to controls and graphed using GraphPad Prism Version 5. A positive binder was determined to be a hit with a signal 3× greater than background (FIGS. 2A, B and C).

[2] = molecular target: T2, Recombinant human CD123 SP1 ECD-His tag protein (human, UniProt P26951 20-305); test: SPR ProteOn, captured mAb
T2 construct: bought from R&D Systems (#301-R3/CF); biotinylated for some assays; also called rhCD123 SP1; huCD123 ECD SP1
T2 sequence: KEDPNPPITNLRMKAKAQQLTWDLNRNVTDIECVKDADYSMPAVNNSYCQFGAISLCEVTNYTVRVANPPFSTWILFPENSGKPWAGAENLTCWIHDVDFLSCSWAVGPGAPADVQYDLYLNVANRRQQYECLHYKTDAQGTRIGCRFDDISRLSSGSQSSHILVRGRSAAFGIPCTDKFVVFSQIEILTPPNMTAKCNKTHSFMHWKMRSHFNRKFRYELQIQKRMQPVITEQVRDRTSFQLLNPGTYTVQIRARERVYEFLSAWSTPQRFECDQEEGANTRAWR
Protocol: (§1) The biosensor surface was prepared by covalently coupling Goat anti-Human IgG (Fc) to the surface of a GLC chip (BioRad) using the manufacturer instructions for amine-coupling chemistry. […] The RU immobilized also included a goat anti-mouse Fc antibody that was added to capture other antibodies not included in the ones reported here. Since the mixture was 1:1 about 50% of these RU immobilized are expected to be goat anti-human Fc. The kinetic experiments were performed at 25° C. in running buffer (PBS pH 7.4, 0.005% P20, 3 mM EDTA). […] The reference spots (Goat anti-Human IgG (Fc)-modified surface) containing no candidate captured were used as a reference surface. Capture of mAb was followed by 3 min injection (association phase) of antigen at 40 μL/min, followed by 10 min of buffer flow (dissociation phase). […] Data was processed on the instrument software. Double reference subtraction of the data was performed by subtracting the curves generated by buffer injection from the reference-subtracted curves for analyte injections. Kinetic analysis of the data was performed using 1:1 Langmuir binding model with group fit. The result for each mAb was reported in the format of Kₐ (kon or on-rate), Kd (koff or off-rate), KD (Equilibrium dissociation constant) (Table 5).

[3] = molecular target: T3, Recombinant human CD123 SP2 ECD protein (human, UniProt P26951 101-303); test: SPR ProteOn, captured mAb
T3 construct: also called rhCD123 SP2; CD123 ECD SP2
T3 sequence: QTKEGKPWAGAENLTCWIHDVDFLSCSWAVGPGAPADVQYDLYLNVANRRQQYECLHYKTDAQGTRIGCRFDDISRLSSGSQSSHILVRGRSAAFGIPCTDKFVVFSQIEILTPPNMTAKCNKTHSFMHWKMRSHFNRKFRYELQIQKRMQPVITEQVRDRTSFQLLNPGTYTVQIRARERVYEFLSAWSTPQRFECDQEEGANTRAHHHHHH
Protocol: as §1

[4] = molecular target: T4, cell-surface CD3 epsilon on primary cynomolgus T cells (cynomolgus monkey, UniProt Q95LI5 22-198); test: flow cytometry competition with labeled CD3B146 on T cells
T4 construct: whole, on cells; also called cynomolgus CD3e; Cyno T-cells
T4 sequence (Q95LI5 22-198): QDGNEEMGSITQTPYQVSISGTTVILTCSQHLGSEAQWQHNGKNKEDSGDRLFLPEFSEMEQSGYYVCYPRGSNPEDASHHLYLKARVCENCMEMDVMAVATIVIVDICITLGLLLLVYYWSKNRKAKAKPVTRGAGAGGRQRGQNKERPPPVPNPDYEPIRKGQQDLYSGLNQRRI
Description: (§2) The format involved competition binding using a fixed concentration of labeled anti-CD3 mAb of known affinity and increasing concentrations of unlabeled test Abs (Ashkenazi A et al. PNAS: 88:10535, 1991.).

[5] = molecular target: T5, cell-surface CD3 epsilon on primary human T cells (human, UniProt P07766 23-207); test: as above
T5 construct: whole, on cells; part of the CD3/TCR complex on the cells
T5 sequence (P07766 23-207): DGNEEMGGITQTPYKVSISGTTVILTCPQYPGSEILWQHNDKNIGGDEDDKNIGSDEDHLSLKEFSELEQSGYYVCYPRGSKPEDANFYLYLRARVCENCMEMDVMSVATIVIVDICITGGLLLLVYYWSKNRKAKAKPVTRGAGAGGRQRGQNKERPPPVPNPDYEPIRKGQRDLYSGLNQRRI
Description: as §2

B1: I3RB16 (antibody, IgG1, V domains shown)
VH: QVQLVQSGAEVKKPGSSVKVSCKASGGTFSSYAISWVRQAPGQGLEWMGGIIPIFGTANYAQKFQGRVTITADESTSTAYMELSSLRSEDTAVYYCARGAVWGDQWFDYWGQGTLVTVSS
VL: not shown
notes: IgG1
binding result [1]: no binding (tested: 10 µg/mL)

B2: I3RB33 (antibody, IgG1, V domains shown)
VH: QVQLVQSGAEVKKPGSSVKVSCKASGGTFSSYGISWVRQAPGQGLEWMGGIIPIFGTANYAQKFQGRVTITADESTSTAYMELSSLRSEDTAVYYCARGYWHWNYDYLDYWGQGTLVTVSS
VL: EIVLTQSPATLSLSPGERATLSCRASQSVNDWLAWYQQKPGQAPRLLIYGASNRATGIPARFSGSGSGTDFTLTISSLEPEDFAVYYCQQYKRAPYTFGQGTKVEIK
notes: IgG1
Kd [2]: 4.23 nM
koff [2]: 0.00177 s⁻¹
kon [2]: 417000 M⁻¹ s⁻¹
binding result [3]: no binding (tested: 400 nM)
binding result [1]: binds

B3: I3RB40 (antibody, IgG1, V domains shown)
VH: B1 VH with A100Q, V101W, G103A, Q105T
VL: B2 VL with N30A, D31K, K92H, R93T, Y96W
notes: IgG1
Kd [2]: 6.02 nM
koff [2]: 0.00346 s⁻¹
kon [2]: 574000 M⁻¹ s⁻¹
binding result [3]: no binding (tested: 400 nM)
binding result [1]: no binding (tested: 10 µg/mL)

B4: I3RB30 (antibody, IgG1, V domains shown)
VH: QVQLVQSGAEVKKPGSSVKVSCKASGGTFSSYAISWVRQAPGQGLEWMGWIIPIFGTANYAQKFQGRVTITADESTSTAYMELSSLRSEDTAVYYCARLVYSSDFDYWGQGTLVTVSS
VL: B2 VL with N30A, D31N, G50Y, K92D, R93G, A94W, Y96R
notes: IgG1; also called 13RB30
Kd [2]: 4.17 nM
koff [2]: 0.00302 s⁻¹
kon [2]: 725000 M⁻¹ s⁻¹
Kd [3]: 330 nM
koff [3]: 0.048 s⁻¹
kon [3]: 145000 M⁻¹ s⁻¹
binding result [1]: no binding (tested: 10 µg/mL)

B5: I3RB20 (antibody, IgG1, V domains shown)
VH: B2 VH with G33A, G99D, Y100D, W101Q, H102I, N104G, Y105S, D106Y, Y107H
VL: not shown
notes: IgG1
Kd [2]: 1.68 nM
koff [2]: 0.00106 s⁻¹
kon [2]: 631000 M⁻¹ s⁻¹

B6: I3RB36 (antibody, IgG1, V domains shown)
VH: B2 VH with G99D, Y100L, W101H, H102V, N104A, D106S, Y107N, L108F
VL: not shown
notes: IgG1
Kd [2]: 2.47 nM
koff [2]: 0.00166 s⁻¹
kon [2]: 675000 M⁻¹ s⁻¹
binding result [3]: no binding (tested: 400 nM)

B7: I3RB5 (antibody, IgG1, V domains shown)
VH: EVQLLESGGGLVQPGGSLRLSCAASGFTFSGYWMSWVRQAPGKGLEWVSGINYDGGSTYYADSVKGRFTISRDNSKNTLYLQMNSLRAEDTAVYYCAKDHFLAEFDYWGQGTLVTVSS
VL: not shown
notes: IgG1; also called I3RB05
Kd [2]: 12.8 nM and 12.9 nM
Kd [3]: 4.88 nM and 4.09 nM

B8: CD3B146 (antibody, IgG1, V domains shown)
VH: EVQLVESGGGLVQPGGSLRLSCAASGFTFNTYAMNWVRQAPGKGLEWVARIRSKYNNYATYYAASVKGRFTISRDDSKNSLYLQMNSLKTEDTAVYYCARHGNFGNSYVSWFAYWGQGTLVTVSS
VL: QTVVTQEPSLTVSPGGTVTLTCRSSTGAVTTSNYANWVQQKPGQAPRGLIGGTNKRAPGTPARFSGSLLGGKAALTLSGVQPEDEAEYYCALWYSNLWVFGGGTKLTVL
notes: IgG1 constant region with L234A, L235A, F405L; human lambda constant region; also called CD3B146 hu IgG1-AlaAla F405L
Kd [4]: 1.1 nM
Kd [5]: 3.2 nM

B9: I3RB19 (antibody, IgG1, V domains shown)
VH: EVQLLESGGGLVQPGGSLRLSCAASGFTFSNYAMSWVRQAPGKGLEWVSGIRGNGSSTYYADSVKGRFTISRDNSKNTLYLQMNSLRAEDTAVYYCAKGGPIGARFPDYLDYWGQGTLVTVSS
VL: DIQMTQSPSSLSASVGDRVTITCRASQSIGDFLNWYQQKPGKAPKLLIYYASSLQSGVPSRFSGSGSGTDFTLTISSLQPEDFATYYCQQSYSTPLTFGQGTKVEIK
notes: IgG1; also called 13RB19
Kd [2]: 119 nM
koff [2]: 0.0251 s⁻¹
kon [2]: 211000 M⁻¹ s⁻¹
Kd [3]: 48.3 nM
koff [3]: 0.0161 s⁻¹
kon [3]: 334000 M⁻¹ s⁻¹
binding result [1]: no binding (tested: 10 µg/mL)

B10: I3RB1 (antibody, IgG1, V domains shown)
VH: EVQLLESGGGLVQPGGSLRLSCAASGFTFSDYGMSWVRQAPGKGLEWVSVIRGGGSSKYYADSVKGRFTISRDNSKNTLYLQMNSLRAEDTAVYYCAKHSGSFRFNELDYWGQGTLVTVSS
VL: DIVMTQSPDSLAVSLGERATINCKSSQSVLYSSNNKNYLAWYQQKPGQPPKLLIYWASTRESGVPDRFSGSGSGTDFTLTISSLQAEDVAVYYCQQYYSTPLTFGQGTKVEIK
notes: IgG1; also called I3RB01
binding result [1]: no binding (tested: 10 µg/mL)

B11: CD123 null 2 (bispecific antibody, human IgG4 S228P, lambda, F234A L235A)
heavy: EVQLLESGGGLVQPGGSLRLSCAASGFTFNTYAMNWVRQAPGKGLEWVARIRSKYNNYATYYADSVKGRFTISRDNSKNTLYLQMNSLRAEDTAVYYCVKHGNFGNSYVSWFAYWGQGTLVTVSSASTKGPSVFPLAPCSRSTSESTAALGCLVKDYFPEPVTVSWNSGALTSGVHTFPAVLQSSGLYSLSSVVTVPSSSLGTKTYTCNVDHKPSNTKVDKRVESKYGPPCPPCPAPEAAGGPSVFLFPPKPKDTLMISRTPEVTCVVVDVSQEDPEVQFNWYVDGVEVHNAKTKPREEQFNSTYRVVSVLTVLHQDWLNGKEYKCKVSNKGLPSSIEKTISKAKGQPREPQVYTLPPSQEEMTKNQVSLTCLVKGFYPSDIAVEWESNGQPENNYKTTPPVLDSDGSFLLYSKLTVDKSRWQEGNVFSCSVMHEALHNHYTQKSLSLSLGK
light: QAVVTQEPSLTVSPGGTVTLTCRSSTGAVTTSNYANWVQQKPGQAPRGLIGGTNKRAPGTPARFSGSLLGGKAALTLSGAQPEDEAEYYCALWYSNLWVFGGGTKLTVLGQPKAAPSVTLFPPSSEELQANKATLVCLISDFYPGAVTVAWKADSSPVKAGVETTTPSKQSNNKYAASSYLSLTPEQWKSHRSYSCQVTHEGSTVEKTVAPTECS
VH: not shown
VL: not shown
notes: also called B21M IgG4 x CD3B217
Kd [4]: 217 nM
Kd [5]: 266 nM

B12: CD123 null 3 (bispecific antibody, human IgG4 S228P, lambda, F234A L235A)
heavy: B11 heavy
light: B11 light with A2T, A80V
VH: not shown
VL: not shown
notes: also called B21M IgG4 x CD3B218
Kd [4]: 237 nM
Kd [5]: 200 nM

B13: CD123 null 1 (bispecific antibody, human IgG4 S228P, lambda, F234A L235A)
heavy: B11 heavy with L5V, D64A, N76D, T80S, R89K, A90T, V99A, K100R
light: B11 light with A2T, A80V
VH: not shown
VL: not shown
notes: also called B21M IgG4 x CD3B219
Kd [4]: 13.4 nM
Kd [5]: 13.2 nM
